{"source": "paper PMC9312987", "about": "“NMR Reveals Specific Tracts within the Intrinsically Disordered Regions of the SARS-CoV-2 Nucleocapsid Protein Involved in RNA Encountering”", "target": "N protein NTR (IDR1-NTD-IDR2) (SARS-CoV-2, UniProt P0DTC9 1-248)", "test": "EMSA", "conditions": "protein: recombinant; tags: none stated; label: 5'-32P for EMSA; unlabeled for NMR; hairpin (stem loop)"}
{"binder": "GGGUGUGGCUGUCACUCGGCUGCAUGCUUAGUGCACUCACGCCC (structured_RNA)", "note": "[5_SL4 (SL4 RNA)]", "values": [{"measurement": "binding result", "value": "binds"}]}
